We go through 74 sequences from the supplement of paper PMC12636428.

The test system of the data set is Saccharomyces cerevisiae. The data set is described as follows: transcriptional activation domain activity (GFP:mCherry ratio, weighted mean of sorted bins, harmonized to initial dataset scale) (arbitrary fluorescence ratio units); higher = stronger transcriptional activation. The note with it: beta-estradiol 1 µM; induction time 4 h. In short, it runs like this:
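In diploid yeast carrying a GFP reporter, barcoded protein tiles fused to an estradiol-inducible synthetic transcription factor were integrated at the URA3 locus. Cultures diluted 1:5 into SC with 1 uM beta-estradiol were kept at 30 °C for 4 hours, then sorted by GFP:mCherry ratio into 8 bins before barcode sequencing. Tiles with under 50 reads were excluded. The activation activity reported here is the read-weighted mean of bin median fluorescence, averaged across barcodes and linearly rescaled to the initial dataset.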

With “RRLAGLLRHLQHRTREMGGHIVLIADPTQVCFVLLRPIIKKPALPAELVRKFW”, the “transcriptional activation domain activity” value worked out at 44800. Take “MRKFLFQSFDILYLLIFLSFFFILSLFFFILIIFGSSPFIYFIFYFNHFFFFD”: the “transcriptional activation domain activity” value came out at 26900. Then “YPLLVCLLDLVKNNSLDDTGWLIGLGCTLWYENSIYIVRKAMELCLRAQEKID”, with 52000; and “MYHALHKSGLSDTYIIQDVGVPFDAVEAFYKWLHETLHIYPLWLCPIRVRRYT”, with 44700.

With “GGGTDPRHLHVVSVMLVKGVPFYGYHIGYSYFLKVSLVNPSRMFVALEQLRKP”, the “transcriptional activation domain activity” value is 30000. Turning to “NRKTIGKQDPYCAARLGKEAKKTETDRRGGQTPRWDQELRFTVHDSADYYQLK”, the “transcriptional activation domain activity” value came out at 44000. Regarding “LRLDGSYLYFADVREANVEQLRLNFTADDVIFKCLAWSIRHFMILRDNYFGSF”, the “transcriptional activation domain activity” value was found to be 46300. Turning to “VLDLVCIKFLSLFTFYIFLLLYLSIFQIICFFLFPFLFLFFPSCPLRRFLFSY”, the “transcriptional activation domain activity” value worked out at 47000. Then “STACILLILVRYLGLIALVLNIIGFFSHEFTMESCQYYWRFMPIMQCFASWAS”, with 61800; and “VPPELYVCAEIVRMVMGYVEGGFVKSSSNHKIRPEVLLIACLIVSIKICYSME”, with 61300; and “MRLYCKVVYCHLFVSYLLPLSLTAHLNHLSKGRSLAIFCLLVLILSSFLFSFS”, with 27000. Then “FILSGCTFRLLFCIFGIRVWLDHQLCGNLLVVELYRKIVRSIDAYHHGKGYPT”, with 61700.

On to “ERERDRDRDRERDRDRDRERAREREHERNHERRKRRRERDRERRRGKSAAAAA”, for which the “transcriptional activation domain activity” value is 33800. Then “TGILAVTLWNIFINKYWPKRRALVVIVILLHVLITVNFATNWAFTYSAFIQNG”, with 49800; and “QREARKEHIKSLVAPGLPFLSIDTYKDLNDKWVLKGVFRGLLVLRGLAHHLRT”, with 63100. As to “GILPPLLLAIVFGVLPFILRGLAWYECVPRYSLMSISVYRRFYLFLLIHGFLI”, the “transcriptional activation domain activity” value came out at 51900. Then “MFFLPFGIFFFFACFFSLFTFADSWLAVFLPDRFLLSFVLFNFAFFFFFFTTL”, with 31900; and “GSDAPASGRAKSKTPKATGAKNGGKGGKGDATEEAEAKREEGGEEKRAAKKSK”, with 20000; and “AEDADADGRTQRQGKGAGASSGSERRTHKARSRKSAKLDSKEKDGEKDKEWKG”, with 23600. Then “MYLFFFFFFFGWVLSLLLYVFFGLGIIGIGIVLFVFVLAFFFLFLGGIFFCGL”, with 43900; and “GEIVQIDLPLYGKSGQNRGKAALEYSDSLSAQKAASHMTGGQIDGAVVKVELS”, with 66000. Take “KDESSSSRRRRGGRSEKEKRERTGDEGDSSSRHRSGRDREGDEEADDDERGSS”: the “transcriptional activation domain activity” value is 37500. Regarding “RAPRTSPHQHKPAPVPAAALARTSPHPRQHQHQHASRAPPAASPHPRQHQEHQ”, the “transcriptional activation domain activity” value amounted to 31300. As for “MLLLLITHIGIAILFVCWNPRFSCPNQSPDQQGTCRLFNMYILISSWIIPAFL”, the “transcriptional activation domain activity” value stood at 55600. Consider “NANADSNIAGNPKNNDATIDNELTQILNEYNMNFNDNLGTSTSGKNKSACPSS”, for which the “transcriptional activation domain activity” value is 54200. Then “WSHPLRMTYFLVLVFFSCTWVGGVLRRGWGYLVLNAFCRHSYICGVCCIHYLS”, with 18800; and “MLAGAFLPLLFGFFFFSFPTSHTPPFHLLPPGFQFLPVSTSFSYFFCFCFFFP”, with 39100; and “TMHLNVVFISVVVNGFCSEHGFVSMRLWAVYKSLSLVLWMSFFIVLCWVGMIV”, with 53600. Then “GEDSTRSAKKPTNKRKKASTAGDEGRETKARKTAKGRAGTRVRKGRGAKTSSS”, with 20500; and “GQPTDASDGNATEGEVPEKPKKAKRKRVKKDAGEISDGGQPKSKPKKKRKPAK”, with 36100. For “PSLKCVSLTYDELVRIVAQLLQKAFFKRFPSLKERFYSLVLSFLKKAMVPTNK”, the “transcriptional activation domain activity” value was 40500. On to “RRRFHRRVTGCNCGVKTYKLGESYNDEFESTYLSYYACRICLLVTSLYIARFW”, for which the “transcriptional activation domain activity” value was 44500. Then “SWFDIDEENGDVISRLEWYHLVQMSLVHATILIWWTTGKVLININVSMAVRCG”, with 54100.

Consider “MTKPIIIKINHIFALRHYYLPYFHPYILFVFFSSLFTLRGTMWLILLFFGSFA”, for which the “transcriptional activation domain activity” value came to 50300. Then “VSMARGKKTFDRETIVIALERLLAVAPLAFQKVKILLALASCHFDFLSSASAY”, with 68200; and “EVEGEGEDGEEEAAPPPKKVRASGRSKKIEYKEESEEEAPAPKKTRGKKAATK”, with 6720. Then “TGNSVWAFHALLSKGYFHMLCKDIDINPERVLATLMLVLSHIFERQLCKHSDI”, with 48500; and “FLLFLSFGGLGGGIYSLCFGHIFSSLFLLFVLFSTSFPYMGPQLHVVMMPTCT”, with 40500; and “QILICVIYVLVAYSRDDTSWSRVCYFMPCAPQSIKERDQAFSLFAGIFSFVVV”, with 39200. Then “MNQTSCFFSAFFLFALFLSFPSFLLPSFFLLFLLFYFFPSYLLLCLFSLIFYK”, with 57200; and “KEKAKAKAKERKREERRKEKEKRAKEKEREKKRLREKEKRRKEKEKEKRRKEK”, with 14900; and “AKEERKAKKKAEKEKAAVAGDAMEVDDSADKKEKKEKKRKRRESEAAGAVKVE”, with 13300. On to “RNLGKLCSLHIEIRDPDLHRWNLVTLILVVHTLKSPFLERVCISFATYANIYG”, for which the “transcriptional activation domain activity” value was 42300. Then “MSPSGAVPSTAQVVPGACVNIVLKADQRTGRQVSGTVRDVLTRGDHHRGIKVR”, with 41300; and “MAKKASGSAEKKGGDKADKKGKAKAKADDSDVEDKGSKGKGALKAATAVNVRH”, with 9660. With “GDFNDKTLKENCRVDSQQDCYDLAQLQILESDFWKTIAFSKPFYAVDENSSIF”, the “transcriptional activation domain activity” value was 102000. With “MQSKAFSFLLSHISLIGFFFTFYEVLLLQFWFLFSLIFIPSYLLMLIVHLFLL”, the “transcriptional activation domain activity” value came to 49000. Then “MLMIVVNDTIFYITVISHILLAYYGLVTIDNGLLLSNPTWYCPLNYTLIATCI”, with 61700; and “LDKKSGRLIKHSLCFTYKDLELLTRFFKEDHVIHPTIKAYVLAACTVLFHLLL”, with 62500; and “DGGGRDSEKRGKGKLITRKSHRKSRLGCGNCKQRRIKCDEKRPHCTNCQKRDI”, with 37600.

As for “RARCIPSAPTRRPLTRSTSTCRRPPRTTGSCWTSSRPSSTPKTSSSAAKPAPC”, the “transcriptional activation domain activity” value was determined as 46200.

Regarding “MRLFYSSFLLFSFLPFLPLLWFFNYLIAIVFPFFFFFFLSFVMGLISFRFLLF”, the “transcriptional activation domain activity” value came to 40200. Then “MSYCIDFPVISSFPAASFYFIFMGTLQDHLPFSLLVYSTLIPFFFFSFLFLSF”, with 41600; and “TRTRKWWLRTVWACTWLIPSFLLSSVGRMKRPDVRLAWREKVTIFWLIFLFNG”, with 68900. Then “LIPIVVLNMYSLLMLLFIRGWFSYLIAVVSISGVLVLHMLYFLLQWRLKYILW”, with 65600. Then “EAEARGSGGGGERQRDCERQREPRATRAGGDAGARDGAGARGLARGAAGVAAM”, with 51700; and “MLLLPYAVFCIISFFHSFLFFLLLGGWLGCIFYLRVVHMHWLVRWFVWLVHGG”, with 65300.

As to “MYLFVLYLFFFIIVIRLFMLLFCVYFSVIFCYLFTLVLLLLFIIFFKLIFILL”, the “transcriptional activation domain activity” value was 62600.

As to “AVDESSSEVKPAEPKADEGKPETASEENTAEASKPEAPKAEEANAEETAPAEG”, the “transcriptional activation domain activity” value was found to be 51300. Then “RKGSVAKEMIDGRVGRREKGGQGDNRGRKRTRRGSGERKRSDKKGRREKRNRK”, with 42300; and “AEEEVEEEVKEEEEEEAKEEEDANESEPEPAPEPAKKGRGRKAAKAPTPVEDE”, with 39700. Then “SATPATSEAAKPATSSLFGNGSSTTTAGATAAKPSLFGAAQSTPTTQPATTGA”, with 38800; and “MQGEETIASKTNKPRQRRAHTRSRTGCSECRNRRVRCDEQKPQCKNCINSQRI”, with 24100. As for “QLFTFLLQTYRMKYLVQRVSPRTIRQINDVRLRHLSYKLRQRLIWFADIMRSY”, the “transcriptional activation domain activity” value was 58900. On to “ALNAIIEGFQLFRSAFQPASLSVSMVHSVSVLVNWPSPYFTSLLLPGYDIGFP”, for which the “transcriptional activation domain activity” value is 62800. “AFMVSRMVILPFVYSLPVLYDILRPFTAHFLRPKFTLTFLWTHFDLITRVFFL”: the “transcriptional activation domain activity” value is 53400.

With “MLVICLLDLLLSIMRCKRNLIQFILVCTKDGFCVGLMTKSYKRSLLVKRLFCT”, the “transcriptional activation domain activity” value is 39300.

For “ILVLIVSNLRLMIENFRKYGVLICIRCHDYRRQDVVYGSILYFLVPCHLFVAY”, the “transcriptional activation domain activity” value is 51300.

“YVAPGVASPIPVNYIWTPFASWRLVAILISLLSLYSWGMLIFFFWFLFWLLLY”: the “transcriptional activation domain activity” value was less than 6570.

For the sequence “MQYVANATPVTCDYDGFDGSGMLVIPNIAIYLSATSGLACIIKCFEILWWYMA”, the “transcriptional activation domain activity” value amounted to 65000. Then “MISSAKLTLFAFFRSMQMQSISLGRNLKAFILRCVLLWPRILRSFRKVWSWYF”, with 18200. Then “CFYLTTRFWDYKRKSYHYFLFGLCYFVNIMDLFYIWFFRDNVYYFIMCWCLTL”, with 57200; and “TLLFQIVIAFIDILRHLSLYKIEIENDTICALVGASMNFSDHIYVAFNTLLAI”, with 49500. For the sequence “YHFCYHLRLYLYAFQPPLFLRLCHFFSYDGWYLGFTWGFFLFFRFHFPIPSFL”, the “transcriptional activation domain activity” value amounted to 45900.
